Experiments:
[1] = tested on: Human lung tumors heterotransplanted into nude mice; assay: in vivo invasion assay, chemotaxis-based cell collection into needles, human lung tumor heterotransplants; details: needles containing 25 nM EGF; first mouse to mouse transplant
Source text: (§1) Therefore, an in vivo invasion assay was created in which three needles (microneedles ˜100 um in diameter) containing matrigel and various growth factors are placed independently with microscopic precision, using a specially designed micromanipulator guided device, into the primary tumor for chemotaxis-based cell collection in vivo [3]. One needle contains control conditions (usually no ligand or an inhibitor), and the other two are identical. […] Fetal serum was also sufficient but this required signaling by the EGF receptor again implicating the EGF receptor. Furthermore, CSF-1 was also sufficient for cell collection. […] Migration and collection was directly correlated with macrophage density in the mammary gland, stage of progression to malignancy (only background levels of cells, <200 cells, were collected from normal mammary glands and adenoma stage tumors compared with carcinoma stage tumors, ˜1000 cells) and the presence of CSF1 in the tumor was required for cell collection as shown using mouse models with either decreased (op/op) or increased (tet on CSF-1) CSF-1 expression that regulates macrophage recruitment to the mammary gland and metastasis. […] Furthermore, the motility of tumor cells and intravasation occurs preferentially in association with macrophages. […]

[2] = tested on: MDA-MB-231 derived mammary tumors; assay: in vivo invasion assay, MDA-MB-231 derived mammary tumors; parameters: species or system human tumor xenograft in SCID mice tumor xenograft in SCID mice; details: MDA-MB-231 injected into mammary fat pad of mice; FIG. 1C
Source text: Therefore, an in vivo invasion assay was created in which three needles (microneedles ˜100 um in diameter) containing matrigel and various growth factors are placed independently with microscopic precision, using a specially designed micromanipulator guided device, into the primary tumor for chemotaxis-based cell collection in vivo [3]. One needle contains control conditions (usually no ligand or an inhibitor), and the other two are identical. […] Fetal serum was also sufficient but this required signaling by the EGF receptor again implicating the EGF receptor. Furthermore, CSF-1 was also sufficient for cell collection. […]
Mammary tumors derived by injecting the human cell line MDA-MB-231 into a mammary fat pad of mice were used in the in vivo invasion assay. […] The involvement of EGF and CSF1 in carcinoma cell invasion has been analyzed from primary breast tumors derived from the injection of MDA-MB-231 cells into the mammary fat pads of SCID mice. […]

[3] = tested on: tumor cells and macrophages of primary mammary tumors; assay: in vivo invasion assay, needles with matrigel and growth factors in primary mammary tumor; parameters: species or system rats and mice; details: factor in matrigel-filled needle placed in primary tumor
Source text: as §1

B1: EGF: epidermal growth factor, chemotactic factor used in collection needles (protein, UniProt P01133 23-1207, looked up)
Pro-epidermal growth factor: PQHWSCPEGTLAGNGNSTCVGPAPFLIFSHGNSIFRIDTEGTNYEQLVVDAGVSVIMDFHYNEKRIYWVDLERQLLQRVFLNGSRQERVCNIEKNVSGMAINWINEEVIWSNQQEGIITVTDMKGNNSHILLSALKYPANVAVDPVERFIFWSSEVAGSLYRADLDGVGVKALLETSEKITAVSLDVLDKRLFWIQYNREGSNSLICSCDYDGGSVHISKHPTQHNLFAMSLFGDRIFYSTWKMKTIWIANKHTGKDMVRINLHSSFVPLGELKVVHPLAQPKAEDDTWEPEQKLCKLRKGNCSSTVCGQDLQSHLCMCAEGYALSRDRKYCEDVNECAFWNHGCTLGCKNTPGSYYCTCPVGFVLLPDGKRCHQLVSCPRNVSECSHDCVLTSEGPLCFCPEGSVLERDGKTCSGCSSPDNGGCSQLCVPLSPVSWECDCFPGYDLQLDEKSCAASGPQPFLLFANSQDIRHMHFDGTDYGTLLSQQMGMVYALDHDPVENKIYFAHTALKWIERANMDGSQRERLIEEGVDVPEGLAVDWIGRRFYWTDRGKSLIGRSDLNGKRSKIITKENISQPRGIAVHPMAKRLFWTDTGINPRIESSSLQGLGRLVIASSDLIWPSGITIDFLTDKLYWCDAKQSVIEMANLDGSKRRRLTQNDVGHPFAVAVFEDYVWFSDWAMPSVMRVNKRTGKDRVRLQGSMLKPSSLVVVHPLAKPGADPCLYQNGGCEHICKKRLGTAWCSCREGFMKASDGKTCLALDGHQLLAGGEVDLKNQVTPLDILSKTRVSEDNITESQHMLVAEIMVSDQDDCAPVGCSMYARCISEGEDATCQCLKGFAGDGKLCSDIDECEMGVPVCPPASSKCINTEGGYVCRCSEGYQGDGIHCLDIDECQLGEHSCGENASCTNTEGGYTCMCAGRLSEPGLICPDSTPPPHLREDDHHYSVRNSDSECPLSHDGYCLHDGVCMYIEALDKYACNCVVGYIGERCQYRDLKWWELRHAGHGQQQKVIVVAVCVVVLVMLLLLSLWGAHYYRTQKLLSKNPKNPYEESSRDVRSRRPADTEDGMSSCPQPWFVVIKEHQDLKNGGQPVAGEDGQAADGSMQPTSWRQEPQLCGMGTEQGCWIPVSSDKGSCPQVMERSFHMPSYGTQTLEGGVEKPHSLLSANPLWQQRALDPPHQMELTQ
modifications: Pro-epidermal growth factor
notes: epidermal growth factor, chemotactic factor used in collection needles
[1]
  fold more cells collected in needles as compared to needles with buffer alone: 2.5 fold
[2]
  fold more cells collected in response to EGF: 2.5 fold
[3]
  chemotaxis to indwelling needles / cell collection: stimulated collection

B2: CSF-1: growth factor chemotactic for macrophages (protein, UniProt P09603 33-554, looked up)
Macrophage colony-stimulating …: EEVSEYCSHMIGSGHLQSLQRLIDSQMETSCQITFEFVDQEQLKDPVCYLKKAFLLVQDIMEDTMRFRDNTPNAIAIVQLQELSLRLKSCFTKDYEEHDKACVRTFYETPLQLLEKVKNVFNETKNLLDKDWNIFSKNCNNSFAECSSQDVVTKPDCNCLYPKAIPSSDPASVSPHQPLAPSMAPVAGLTWEDSEGTEGSSLLPGEQPLHTVDPGSAKQRPPRSTCQSFEPPETPVVKDSTIGGSPQPRPSVGAFNPGMEDILDSAMGTNWVPEEASGEASEIPVPQGTELSPSRPGGGSMQTEPARPSNFLSASSPLPASAKGQQPADVTGTALPRVGPVRPTGQDWNHTPQKTDHPSALLRDPPEPGSPRISSLRPQGLSNPSTLSAQPQLSRSHSSGSVLPLGELEGRRSTRDRRSPAEPEGGPASEGAARPLPRFNSVPLTDTGHERQSEGSFSPQLQESVFHLLVPSVILVLLAVGGLLFYRWRRRSHQEPQRADSPLEQPEGSPLTQDDRQVELPV
[3]
  chemotaxis to indwelling needles / cell collection: sufficient
